Results as given in US20080300163A1.

Assays:
[1] = target: T1, full length rat GHR (L43R) on BAF3 cells (clone 2E2-2B12-F4) (rat) (UniProt P16310); test: cell-based or functional assay
T1 sequence (looked up): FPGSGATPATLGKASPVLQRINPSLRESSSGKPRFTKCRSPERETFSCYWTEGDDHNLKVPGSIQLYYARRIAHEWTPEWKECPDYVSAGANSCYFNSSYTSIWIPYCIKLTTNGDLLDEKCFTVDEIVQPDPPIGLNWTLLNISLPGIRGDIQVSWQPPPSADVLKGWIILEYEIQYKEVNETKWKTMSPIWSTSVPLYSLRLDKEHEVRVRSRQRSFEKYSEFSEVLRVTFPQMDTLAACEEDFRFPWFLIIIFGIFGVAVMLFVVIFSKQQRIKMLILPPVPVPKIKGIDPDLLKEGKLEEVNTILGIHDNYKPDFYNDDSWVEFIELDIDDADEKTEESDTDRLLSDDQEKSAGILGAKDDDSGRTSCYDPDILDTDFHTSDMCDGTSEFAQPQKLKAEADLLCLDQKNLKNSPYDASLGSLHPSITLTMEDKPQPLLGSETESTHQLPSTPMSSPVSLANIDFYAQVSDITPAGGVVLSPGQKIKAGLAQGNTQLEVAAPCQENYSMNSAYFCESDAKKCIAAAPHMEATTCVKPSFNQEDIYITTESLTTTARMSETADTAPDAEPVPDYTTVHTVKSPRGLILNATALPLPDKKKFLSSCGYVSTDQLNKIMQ

[2] = target: human growth hormone receptor on IM-9 cells (human) (UniProt P10912); test: cell-based or functional assay
UniProt P10912, sequence (P10912 19-638): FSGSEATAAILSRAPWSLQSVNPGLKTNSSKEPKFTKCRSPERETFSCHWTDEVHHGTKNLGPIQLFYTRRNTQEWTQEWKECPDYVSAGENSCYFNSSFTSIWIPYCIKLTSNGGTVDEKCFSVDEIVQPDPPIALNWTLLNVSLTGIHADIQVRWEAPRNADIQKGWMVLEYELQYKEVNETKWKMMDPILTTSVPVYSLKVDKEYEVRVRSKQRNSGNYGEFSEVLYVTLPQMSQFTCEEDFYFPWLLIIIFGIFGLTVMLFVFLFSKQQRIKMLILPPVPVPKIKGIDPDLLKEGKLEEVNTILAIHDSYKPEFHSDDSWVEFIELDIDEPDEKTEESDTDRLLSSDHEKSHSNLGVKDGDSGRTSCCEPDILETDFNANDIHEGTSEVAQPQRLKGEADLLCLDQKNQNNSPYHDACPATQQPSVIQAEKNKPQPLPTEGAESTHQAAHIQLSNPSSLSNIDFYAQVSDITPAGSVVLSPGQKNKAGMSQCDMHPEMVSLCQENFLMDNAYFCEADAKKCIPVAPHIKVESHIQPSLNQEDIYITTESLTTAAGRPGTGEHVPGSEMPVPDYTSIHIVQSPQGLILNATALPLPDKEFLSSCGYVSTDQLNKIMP

Row | Substance | Proliferation EC50 [1] | pSTAT5 EC50 (nM) [2]
1 | Y35pAF-40KPEG hGH (from UniProt P01241 27-217) (ligand) | 24 nM | 53.3 nM
2 | R134pAF-20KPEG hGH (from UniProt P01241 27-217) (ligand) |  | 5.3 nM

Further lines, results first:

Row | Proliferation EC50 [1] | pSTAT5 EC50 (nM) [2] | Substance
3 | 4.6 nM | 23.8 nM | G131pAF-30KPEG hGH (from UniProt P01241 27-217) (ligand)
4 | 6.6 nM | 12.3 nM | Y143pAF-30KPEG hGH (from UniProt P01241 27-217) (ligand)
5 | 5.3 nM | 20.6 nM | K145pAF-30KPEG hGH (from UniProt P01241 27-217) (ligand)
